Experimental data reported in the supplement of paper PMC10126150.
± gives the standard deviation of the averaged measurements.

Tested on: ATP
Test: switch fluorescence ratio, 500 uM ATP over buffer (Cy3 cluster intensity, sum of 5 cycles each) (fold (ratio)); higher = stronger signal-on switching upon ATP binding; sequences stand for … in TCGTCGGCAGCGTCAGATGTGTATAAGAGACAGTTTTTTTTTTTTTTTTTTTTTTTTT…TC
Conditions: aptamer strand: ATP DNA aptamer (quencher-CACCTGGGGGAGTATTGCGGAGGAAGG + anchor), 100 nM annealed; ATP concentration: 500 uM
Outline: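 The quencher-labelled ATP aptamer, at 100 nM, was annealed to Cy3-labelled switching-strand clusters on a modified Illumina MiSeq flow-cell. The clusters were imaged in selection buffer, then after 15 min with 500 uM ATP at 22 °C, and this buffer/ATP cycle ran five times with NaOH stripping and re-annealing between runs. Per-cluster fluorescence ratios, summed target-cycle over summed buffer-cycle Cy3 intensity, were averaged per switch-domain sequence. Clusters outside 100-1000 RFU were excluded.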
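Further: ATP exposure 15 min at 22 °C before imaging.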

| Sequence | switch fluorescence ratio |
| --- | --- |
| GCGGGGACAT | 0.994 ± 0.013 |
| AGCAAGGGGA | 1.07 ± 0.058 |
| ATTTATTGGT | 1.007 ± 0.0062 |
| TAGTACTTTA | 1.046 ± 0.0071 |
| AGTTATGTAG | 1.01 ± 0.052 |
| GGGTTAATCG | 1 ± 0.022 |
| AGGGTCGCTG | 1.016 ± 0.0011 |
| ATGTAAGAGG | 0.9754 ± 0.0093 |
| TTATTGGAAT | 1 ± 0.063 |
| CGTGAGCTAG | 1.03 ± 0.029 |
| GATGCAGCGA | 1.107 ± 0.011 |
| AACGGCTCTT | 1.03 ± 0.074 |
| TGGTTTTATT | 1.01 ± 0.043 |
| AGAGTTATGT | 1.019 ± 0.0068 |
| AAATTCGGGG | 0.959 ± 0.037 |
| CAGGGTGAAC | 1.02 ± 0.019 |
| GAACAAGGAG | 1.03 ± 0.077 |
| TCGGGATTTT | 0.997 ± 0.041 |
| GACCATGTTT | 0.9932 ± 0.0082 |
| TTAATAAAC | 1.01 ± 0.017 |
| GTTATAGAGG | 1.03 ± 0.042 |
| AATTAGGGTA | 1.03 ± 0.012 |
| TTATAGGGTA | 1 ± 0.017 |
| GCAGCCATAA | 2.27 ± 0.16 |
| ATTTAGTACT | 1.04 ± 0.021 |

| Sequence | switch fluorescence ratio |
| --- | --- |
| AGTCTGCGCG | 1.002 ± 0.007 |
| TATAGGTGCG | 0.9891 ± 0.0049 |
| TTGGAATAAA | 1.02 ± 0.015 |
| CTGTAAGGGG | 0.977 ± 0.022 |
| GCTGTACGCG | 1.03 ± 0.029 |
| TGGGTTTAAC | 1.08 ± 0.18 |
| GGTTTTGTTT | 0.9996 ± 0.0075 |
| TGGTCAAAGA | 0.986 ± 0.015 |
| ATCTGGGGGG | 1 ± 0.064 |
| GTATAAACCC | 1.03 ± 0.019 |
| ACATGCGGGG | 1.019 ± 0.01 |
| GGGATAGTGG | 0.979 ± 0.03 |
| CCAAAAGGCT | 1.08 ± 0.044 |
| ACTGGGGGCT | 0.975 ± 0.0098 |
| TAGTCGCGTA | 1.05 ± 0.035 |
| GGGGACTGGT | 1 ± 0.043 |
| TATTAATTCG | 1.01 ± 0.032 |
| CGAACCGTCA | 1.08 ± 0.028 |
| GCCTATGCGG | 1.01 ± 0.0033 |
| TATAAAAACT | 1.01 ± 0.021 |
| CCTTATTGAA | 0.979 ± 0.021 |
| TTACTTCAGG | 1.032 ± 0.0026 |
| TGGCAGTGGT | 0.993 ± 0.03 |
| GAGGGTAGTC | 1.004 ± 0.007 |
| CGGTTATGTA | 0.989 ± 0.034 |

| Sequence | switch fluorescence ratio |
| --- | --- |
| AAGGACGCCT | 1.03 ± 0.0041 |
| AGTACGGGGA | 1.04 ± 0.053 |
| TTTGTAAAGG | 0.999 ± 0.013 |
| ATGGTTAGGG | 1.03 ± 0.033 |
| TGGGACAGTG | 0.968 ± 0.058 |
| TTTGGAGTTT | 0.987 ± 0.053 |
| TGCGATAAGC | 1.026 ± 0.01 |
| AACCATTTGG | 0.9825 ± 0.0046 |
| ATAGGGGTGC | 1.02 ± 0.042 |
| CGGTTTTAGG | 1.0066 ± 0.00065 |
| GATGTGTCTG | 0.999 ± 0.026 |
| AAAGATGTCG | 1.07 ± 0.044 |
| CTGTTAGAGA | 1.01 ± 0.014 |
| CGCTGAAAGG | 1.02 ± 0.026 |
| GAAGATGCGG | 1.0002 ± 0.00028 |
| GCTGGTCGCC | 1.005 ± 0.01 |
| GGCTTATTTT | 1.0031 ± 6.6e-05 |
| TAGTATAGGA | 0.973 ± 0.056 |
| CATGAGATTG | 0.971 ± 0.029 |
| TTCGAGTCGG | 0.967 ± 0.011 |
| ATCACTAGGA | 1.04 ± 0.037 |
| GGTTTAATGT | 0.9927 ± 0.0098 |
| CGGCGCCTGC | 1.08 ± 0.039 |
| TAAAAATATT | 0.961 ± 0.03 |
| TGCATTAATT | 0.992 ± 0.019 |

| Sequence | switch fluorescence ratio |
| --- | --- |
| TTCGAGTTTT | 0.9669 ± 0.00099 |
| ATTGGGGGTG | 1.04 ± 0.012 |
| ATCGAACCTT | 1.55 ± 0.45 |
| TGTGAGCTGT | 1.0077 ± 0.00016 |
| AATTTGAGGA | 0.972 ± 0.02 |
| TGCATTGGG | 0.975 ± 0.058 |
| TGAGTTATGC | 0.953 ± 0.015 |
| TAATGTTCTT | 1 ± 0.033 |
| GCGTTAGGGT | 0.976 ± 0.027 |
| ACCAATCCTG | 1 ± 0.013 |
| AGGATCAACG | 0.984 ± 0.034 |
| GGGGAGCATT | 1.04 ± 0.013 |
| GGGTTTAGGT | 0.981 ± 0.011 |
| GGACAGGGGA | 1.87 ± 1.2 |
| ACGAATGGTG | 1.02 ± 0.031 |
| GGTAGTTTCA | 0.9966 ± 0.00047 |
| TTATGATTTG | 1.02 ± 0.02 |
| ATTTTTAGAC | 1.03 ± 0.022 |
| TCGAAGGGGT | 0.982 ± 0.013 |
| AGTTTACGAA | 1.01 ± 0.0069 |
| CCGTTATTAG | 1.3518 ± 0.0007 |
| TGGCTTAAAC | 1.18 ± 0.28 |
| TCGCGAAATG | 0.968 ± 0.025 |
| GAGATTGTGG | 0.9652 ± 0.0048 |
| GGGGGTGGAA | 0.97 ± 0.028 |

| Sequence | switch fluorescence ratio |
| --- | --- |
| GTGATATAGG | 1.03 ± 0.041 |
| TTTATTGGCG | 1.01 ± 0.035 |
| ATTTAAGGGT | 0.993 ± 0.032 |
| GGGTAATTAG | 1.03 ± 0.041 |
| GGTGCGGGCG | 1.02 ± 0.11 |
| ATCCTTTGTG | 1.02 ± 0.053 |
| TGGGGTGGAG | 0.97 ± 0.032 |
| TGCTGTAATA | 1.035 ± 0.0031 |
| GTGCAGGGGC | 1.04 ± 0.019 |
| AGGACGTCCA | 0.989 ± 0.02 |
| TTGAATATCT | 1.03 ± 0.032 |
| GGGAAGGCAT | 0.986 ± 0.047 |
| TTAGGTTGGG | 1.02 ± 0.056 |
| TTGTGTTTGG | 0.992 ± 0.014 |
| CACGTAAAAA | 1.16 ± 0.19 |
| GTCTTTTTTT | 0.96 ± 0.045 |
| AAGTTAGACC | 1.026 ± 0.0041 |
| GTAATTATGT | 1.02 ± 0.016 |
| CAAATTGGGT | 0.996 ± 0.04 |
| CTGCACGGAG | 1.01 ± 0.022 |
| GGATGTGAGC | 0.983 ± 0.021 |
| TCCGGATTTT | 1.01 ± 0.016 |
| TTGGGTCGAT | 0.985 ± 0.024 |
| AGTTCTCAGT | 0.997 ± 0.018 |
| GGGAAAGAAT | 0.978 ± 0.011 |

| Sequence | switch fluorescence ratio |
| --- | --- |
| GTCGTGTGGG | 0.996 ± 0.0025 |
| GGAGACAGTT | 0.971 ± 0.024 |
| GGTAGAAGCG | 1.02 ± 0.026 |
| TGTTATACGT | 1.02 ± 0.019 |
| ACCTTTTTTT | 1.17 ± 0.11 |
| AAGCATCATT | 1.0176 ± 0.00039 |
| TTTCTTATTC | 0.983 ± 0.022 |
| CGGTTGTTTG | 0.974 ± 0.015 |
| CACGGTGGCT | 1.01 ± 0.03 |
| GGGGCTTTTC | 1.01 ± 0.027 |
| ACGGTACTGT | 1.4 ± 0.045 |
| GGCTTAGTTT | 1.01 ± 0.0055 |
| ACGGGTTGTT | 1.02 ± 0.021 |
| AGGTTACATC | 1.018 ± 0.0016 |
| TTGGAGGTCG | 1.03 ± 0.019 |
| AATTAAACGA | 1.036 ± 0.0068 |
| GCGGCGGGGG | 0.99 ± 0.031 |
| GGACTTGGGC | 0.986 ± 0.036 |
| TTTTCACCAA | 1.03 ± 0.025 |
| ATATTGGTGG | 0.991 ± 0.042 |
| ATTGTGACTG | 0.975 ± 0.037 |
| TAGTTATGTG | 0.9513 ± 0.0043 |
| AATAAGAGAC | 1.01 ± 0.043 |
| TACTTTCTGC | 1.02 ± 0.066 |
| TTACCTGGCT | 1.1 ± 0.059 |

| Sequence | switch fluorescence ratio |
| --- | --- |
| AATAAAAAAC | 1.05 ± 0.078 |
| AGGTGTATTG | 1.03 ± 0.017 |
| GGTCGTCAGT | 0.986 ± 0.037 |
| GTTTAATGGG | 0.999 ± 0.037 |
| GAATTTGGAA | 1.01 ± 0.022 |
| TGGGTTATCT | 0.972 ± 0.028 |
| CGTTTGTCTA | 1.01 ± 0.051 |
| CGCGAGGGCC | 1.1 ± 0.08 |
| TTTTCTTCTC | 1.03 ± 0.028 |
| ATGGGTCAGT | 0.9872 ± 0.0044 |
| TTTACCCCAT | 1.05 ± 0.032 |
| ACGTAGTAAC | 1.03 ± 0.022 |
| CTAAGGGAAG | 0.9781 ± 0.00035 |
| ATAATGGTC | 1.003 ± 0.008 |
| TAAGGAGAAT | 0.9676 ± 0.0046 |
| CAGGACTTAT | 1.02 ± 0.064 |
| GAGACGGGTG | 1.01 ± 0.031 |
| CGGGGAGGAG | 1.02 ± 0.056 |
| TTGTGGGGCA | 1.02 ± 0.021 |
| TTTGAGTCAT | 0.9713 ± 0.0092 |
| TGTTTAAAGG | 1.02 ± 0.051 |
| CGAGGTAGTT | 0.975 ± 0.026 |
| TCGGTTGTG | 0.9644 ± 0.0092 |
| ATGTTGTCTG | 1 ± 0.035 |
| GACAGGGTCC | 1.04 ± 0.052 |

| Sequence | switch fluorescence ratio |
| --- | --- |
| GCAAATGTGT | 0.969 ± 0.026 |
| GTGTTAGAT | 0.964 ± 0.043 |
| GAGATGTTT | 0.969 ± 0.04 |
| ATGAGTACGG | 1.04 ± 0.03 |
| AAAACAAACT | 1.26 ± 0.38 |
| TGATGGGGTG | 0.99 ± 0.012 |
| GGGCACTCTT | 1 ± 0.011 |
| GATTGGGGTG | 1 ± 0.035 |
| TTGCCTGCGG | 0.999 ± 0.0067 |
| GAGTGAGGGC | 0.9957 ± 0.003 |
| GGGGATGTTA | 1.01 ± 0.026 |
| GTTGGAGGGA | 1.01 ± 0.032 |
| GGGTTGTGGG | 1 ± 0.043 |
| ATTAAATAGA | 1.02 ± 0.014 |
| AGGACGGGAT | 1.06 ± 0.056 |
| AAATGTGCTG | 1 ± 0.024 |
| TTGGATATTT | 1 ± 0.015 |
| CCGTCAGGTT | 1.012 ± 0.005 |
| ATCGTGTATC | 1.06 ± 0.0081 |
| AGCTACGTTT | 0.9963 ± 0.0053 |
| GATTTTTACG | 1 ± 0.033 |
| TAAAGTGATT | 0.988 ± 0.025 |
| TTTCAAATTC | 0.981 ± 0.026 |
| TTTTTGAAGA | 0.986 ± 0.046 |
| AAAATTTTTT | 1.07 ± 0.19 |
